Measured values from patent publication US20030129189A1, “Tumor necrosis factor-gamma” (priority 1994, published 2003).

How the values were obtained:
Assay in all cases: flow cytometry on transiently transfected cells
[1] = target: T1, LTβR on transiently transfected cells (UniProt P36941 31-435, limits assumed)
T1 construct: whole, on cells
Protocol: (§1) One million cells, in 0.1 ml of FACS buffer (PBS, 0.1% BSA, 0.1% NaN₃), were incubated with 0.1-1 microgram of protein or antibody at RT for 15 min. The cells were washed with 3 ml of FACS buffer, reacted with biotinylated primary antibody, and stained with PE-conjugated secondary antibody at RT for 15 min. Cells were then washed again, resuspended in 0.5 microgram/ml of propidium iodide, and live cells were gated and analyzed on a FACScan using the CellQuest software (BD Biosciences).

[2] = target: T2, DcR2 on transiently transfected cells (UniProt Q9UBN6 56-386, limits assumed)
T2 construct: whole, on cells
T2 sequence (looked up): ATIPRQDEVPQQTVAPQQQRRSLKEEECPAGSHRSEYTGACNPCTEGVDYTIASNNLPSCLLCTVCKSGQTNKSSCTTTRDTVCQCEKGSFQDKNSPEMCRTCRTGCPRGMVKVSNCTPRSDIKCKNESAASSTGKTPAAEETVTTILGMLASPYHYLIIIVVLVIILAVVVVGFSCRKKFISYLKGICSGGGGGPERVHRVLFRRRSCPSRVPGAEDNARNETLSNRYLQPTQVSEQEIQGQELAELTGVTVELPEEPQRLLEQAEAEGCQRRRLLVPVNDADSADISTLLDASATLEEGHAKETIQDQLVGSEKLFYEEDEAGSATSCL
Protocol: as §1

[3] = target: T3, DR6 on transiently transfected cells (UniProt O75509 42-655, limits assumed)
T3 construct: whole, on cells
T3 sequence (looked up): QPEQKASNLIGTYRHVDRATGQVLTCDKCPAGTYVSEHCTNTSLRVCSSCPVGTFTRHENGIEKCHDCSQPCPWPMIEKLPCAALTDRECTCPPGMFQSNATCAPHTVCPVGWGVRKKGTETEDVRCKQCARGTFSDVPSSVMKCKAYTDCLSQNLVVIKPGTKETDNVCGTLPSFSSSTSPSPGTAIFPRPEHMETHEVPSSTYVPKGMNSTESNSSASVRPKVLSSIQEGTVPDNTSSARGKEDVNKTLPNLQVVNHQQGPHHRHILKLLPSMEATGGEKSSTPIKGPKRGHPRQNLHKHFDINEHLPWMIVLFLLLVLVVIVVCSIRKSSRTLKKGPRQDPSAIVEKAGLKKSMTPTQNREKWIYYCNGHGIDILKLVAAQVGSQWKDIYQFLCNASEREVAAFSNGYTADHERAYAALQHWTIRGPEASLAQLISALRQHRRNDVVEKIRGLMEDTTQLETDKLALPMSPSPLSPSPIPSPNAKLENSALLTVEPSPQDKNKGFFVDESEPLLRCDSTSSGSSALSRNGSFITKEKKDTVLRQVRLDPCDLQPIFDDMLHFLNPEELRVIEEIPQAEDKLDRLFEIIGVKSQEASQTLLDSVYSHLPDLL
Protocol: as §1

[4] = target: T4, BCMA on transiently transfected cells (UniProt Q02223 1-184, limits assumed)
T4 construct: whole, on cells
T4 sequence (looked up): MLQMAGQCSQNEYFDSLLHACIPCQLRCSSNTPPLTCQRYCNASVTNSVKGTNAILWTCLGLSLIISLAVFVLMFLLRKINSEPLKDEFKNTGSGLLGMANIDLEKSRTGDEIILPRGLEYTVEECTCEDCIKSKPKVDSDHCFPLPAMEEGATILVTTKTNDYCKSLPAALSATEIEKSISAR
Protocol: as §1

[5] = target: T5, RANK on transiently transfected cells (UniProt Q9Y6Q6 30-616, limits assumed)
T5 construct: whole, on cells
T5 sequence (looked up): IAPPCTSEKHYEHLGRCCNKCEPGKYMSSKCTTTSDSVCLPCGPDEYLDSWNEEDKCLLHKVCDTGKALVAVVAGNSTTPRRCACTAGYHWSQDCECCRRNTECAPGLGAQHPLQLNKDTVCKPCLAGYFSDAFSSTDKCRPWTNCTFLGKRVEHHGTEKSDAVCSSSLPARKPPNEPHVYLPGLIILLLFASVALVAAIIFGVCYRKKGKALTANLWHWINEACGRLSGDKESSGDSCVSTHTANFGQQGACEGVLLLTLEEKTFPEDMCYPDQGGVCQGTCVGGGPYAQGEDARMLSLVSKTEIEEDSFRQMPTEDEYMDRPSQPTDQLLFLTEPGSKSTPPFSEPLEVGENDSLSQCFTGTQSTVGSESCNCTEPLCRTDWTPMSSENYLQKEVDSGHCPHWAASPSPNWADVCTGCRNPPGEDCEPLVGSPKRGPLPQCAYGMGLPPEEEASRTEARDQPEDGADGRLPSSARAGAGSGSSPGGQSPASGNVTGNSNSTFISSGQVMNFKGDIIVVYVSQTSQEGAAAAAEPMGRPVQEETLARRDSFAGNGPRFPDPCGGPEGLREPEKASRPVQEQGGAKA
Protocol: as §1

[6] = target: T6, DR5 on transiently transfected cells (UniProt O14763 56-440, limits assumed)
T6 construct: whole, on cells
Protocol: as §1

[7] = target: T7, 4-1BB on transiently transfected cells (UniProt Q07011 24-255)
T7 construct: whole, on cells
Protocol: as §1

[8] = target: T8, DR4 on transiently transfected cells (UniProt O00220 24-468, limits assumed)
T8 construct: whole, on cells
T8 sequence (looked up): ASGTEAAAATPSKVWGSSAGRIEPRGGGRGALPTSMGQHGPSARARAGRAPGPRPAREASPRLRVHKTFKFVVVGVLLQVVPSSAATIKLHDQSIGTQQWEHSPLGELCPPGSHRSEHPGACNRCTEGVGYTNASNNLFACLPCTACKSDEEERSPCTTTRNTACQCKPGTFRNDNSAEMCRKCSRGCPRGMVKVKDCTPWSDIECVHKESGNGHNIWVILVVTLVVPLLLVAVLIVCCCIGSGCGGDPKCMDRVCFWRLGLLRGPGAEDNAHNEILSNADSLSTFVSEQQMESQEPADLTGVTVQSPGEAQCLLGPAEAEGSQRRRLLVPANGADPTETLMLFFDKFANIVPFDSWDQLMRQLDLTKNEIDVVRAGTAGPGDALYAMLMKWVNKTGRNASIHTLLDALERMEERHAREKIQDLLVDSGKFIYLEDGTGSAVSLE
Protocol: as §1

[9] = target: T9, AITR on transiently transfected cells (UniProt Q9Y5U5 26-241, limits assumed)
T9 construct: whole, on cells
T9 sequence (looked up): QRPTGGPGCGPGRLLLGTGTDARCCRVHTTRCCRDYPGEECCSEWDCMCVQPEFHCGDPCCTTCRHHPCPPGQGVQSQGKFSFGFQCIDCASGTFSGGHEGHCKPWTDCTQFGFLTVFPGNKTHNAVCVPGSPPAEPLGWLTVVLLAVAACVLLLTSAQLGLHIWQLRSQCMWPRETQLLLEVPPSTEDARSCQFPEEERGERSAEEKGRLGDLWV
Protocol: as §1

Measured: binding result

T7 sequence (Q07011 24-255): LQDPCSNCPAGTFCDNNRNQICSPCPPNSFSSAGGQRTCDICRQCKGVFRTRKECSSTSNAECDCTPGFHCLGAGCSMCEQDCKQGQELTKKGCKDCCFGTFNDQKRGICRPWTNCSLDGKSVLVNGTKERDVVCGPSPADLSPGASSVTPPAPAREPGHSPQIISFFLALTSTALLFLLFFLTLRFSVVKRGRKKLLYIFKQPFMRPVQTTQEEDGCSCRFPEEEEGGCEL
T1 sequence (P36941 31-435 limits assumed): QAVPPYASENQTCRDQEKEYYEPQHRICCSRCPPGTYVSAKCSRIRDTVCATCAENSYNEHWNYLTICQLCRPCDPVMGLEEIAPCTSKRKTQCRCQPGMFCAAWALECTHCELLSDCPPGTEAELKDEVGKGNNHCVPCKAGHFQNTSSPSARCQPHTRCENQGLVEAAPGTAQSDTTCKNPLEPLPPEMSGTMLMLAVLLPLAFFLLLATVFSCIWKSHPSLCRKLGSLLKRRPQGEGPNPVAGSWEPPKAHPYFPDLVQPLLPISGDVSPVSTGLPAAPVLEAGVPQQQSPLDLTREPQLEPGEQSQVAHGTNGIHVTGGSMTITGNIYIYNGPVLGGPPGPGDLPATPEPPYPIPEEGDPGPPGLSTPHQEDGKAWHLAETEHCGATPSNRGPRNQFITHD

B1: FLAG-tagged soluble TNF-gamma-beta (aa 72-251) (ligand)
chain: LKGQEFAPSHQQVYAPLRADGDKPRAHLTVVRQTPTQHFKNQFPALHWEHELGLAFTKNRMNYTNKFLLIPESGDYFIYSQVTFRGMTSECSEIRQAGRPNKPDSITVVITKVTDSYPEPTQLLMGTKSVCEVGSNWFQPIYLGAMFSLQEGDKLMVNVSDISLVDYTKEDKTFFGAFLL
notes: also called FLAG-TL1β; FLAG-TNF-gamma-beta; not shown: The N-terminal FLAG tag (pFLAG-CMV-1 vector) and any vector linker
no binding: [1] | [2] | [3] | [4] | [5] | [6] | [7] | [8] | [9]
